We go through 13 sequences from the Immune Epitope Database (IEDB).

As usually defined, the Kd is the concentration at which binding is half-saturated.

For one assay, the target named is HLA-B*51:01. As to the kind of experiment: IEDB peptide-MHC binding, purified MHC/direct/fluorescence; filed as Kd, often an IC50 or EC50 that approximates it; ≥ and ≤ were set here for values at or beyond the usual limits of such assays.
The next assay has as its target HLA-B*07:02. The description is as above.
In a further assay the target is HLA-A*24:03. Described as above. As to conditions: source organism: Vibrio cholerae.
In the next assay the target is HLA-A*26:01. The description is as above. As to conditions: source organism: Vibrio cholerae.
The next assay deals with HLA-B*44:02. The description is as above. As to conditions: source organism: Vibrio cholerae.
Another assay concerns the target HLA-A*01:01. Described as above.
The target in a further assay is HLA-B*08:01. The description is as above. As to conditions: source organism: Vibrio cholerae.
The target of another assay is HLA-B*40:01. The assay is described as above.
In a further assay the target is HLA-B*27:05. Described as above.
A further assay addresses HLA-A*69:01. The description is as above.
In a further assay the target is HLA-B*15:01. Described as above.
A further assay concerns the target HLA-A*02:01. The description is as above.
For assay [1], the target named is HLA-A*11:01. The description is as above.
For assay [2], the target named is HLA-A*31:01. The description is as above.
A further assay deals with HLA-B*58:01. The description is as above.
The target of assay [3] is HLA-A*03:01. The description is as above.
In another assay the target is HLA-B*46:01. Described as above. As to conditions: source organism: Giardia lamblia ATCC 50803.
The target in the next assay is HLA-B*48:01. Described as above. The note with it: source organism: Giardia lamblia ATCC 50803.
A further assay deals with HLA-B*57:01. The assay is described as above.
For another assay, the target named is HLA-B*15:17. Described as above.
A further assay concerns the target HLA-A*33:01. Briefly: IEDB peptide-MHC binding, purified MHC/competitive/radioactivity; filed as Kd, often an IC50 or EC50 that approximates it; ≥ and ≤ were set here for values at or beyond the usual limits of such assays. As to conditions: source organism: Vaccinia virus WR.
Assay [4] has as its target HLA-A*11:01. The assay is described as above. As to conditions: source organism: Vaccinia virus WR.
The target of the next assay is HLA-A*68:01. Described as above. The note with it: source organism: Vaccinia virus WR.
The target of assay [5] is HLA-A*31:01. The description is as above. As to conditions: source organism: Vaccinia virus WR.
Assay [6] concerns the target HLA-A*03:01. The description is as above. The note with it: source organism: Vaccinia virus WR.
The next assay deals with HLA-B*45:06. Briefly: IEDB peptide-MHC binding, purified MHC/competitive/fluorescence; filed as Kd, often an IC50 or EC50 that approximates it; ≥ and ≤ were set here for values at or beyond the usual limits of such assays.
Another assay deals with HLA-B*15:42. The assay is described as above.
In a further assay the target is HLA-B*83:01. The assay is described as above.
The next assay has as its target HLA-B*18:01. Briefly: IEDB peptide-MHC binding, purified MHC/direct/fluorescence; filed as Kd, often an IC50 or EC50 that approximates it; ≥ and ≤ were set here for values at or beyond the usual limits of such assays. The note with it: source organism: Mammarenavirus lassaense.
The next assay deals with HLA-A*02:16. The description is as above. The note with it: source organism: Listeria monocytogenes serotype 4b str. H7858.
Another assay deals with HLA-A*02:12. The assay is described as above. As to conditions: source organism: Listeria monocytogenes serotype 4b str. H7858.
Where [7] appears, read: source organism: Mammarenavirus lassaense.
[8] abbreviates: source organism: Vibrio cholerae.
The mark [9] stands for this setting: source organism: Giardia lamblia ATCC 50803.
The mark [10] stands for this setting: source organism: Camelpox virus M-96.
Setting [11] is: source organism: Bacillus cytotoxicus.
Setting [12] is: source organism: Listeria monocytogenes.
Setting [13] is: source organism: Yaba-like disease virus.
Setting [14] is: source organism: Orthohantavirus dobravaense.
[15] abbreviates: source organism: Human immunodeficiency virus 1.

As for CGRSCTSSL, the Kd was not below 20 µM with HLA-B*51:01 (setting [7]) and 0.558 µM with HLA-B*07:02 (setting [7]).

DSDPMDGCE: the Kd with HLA-A*24:03, in the assay with HLA-A*26:01, with HLA-B*44:02, with HLA-A*01:01 (setting [8]), with HLA-B*08:01 and with HLA-B*40:01 (setting [8]) was not below 20 µM throughout. Moreover, the Kd with HLA-B*27:05 (setting [8]), in the assay with HLA-A*69:01 (setting [8]), with HLA-B*15:01 (setting [8]), in the assay with HLA-A*02:01 (setting [8]), in the assay with HLA-A*11:01 [1] (setting [8]) and in the assay with HLA-A*31:01 [2] (setting [8]) was not below 20 µM each time. The Kd with HLA-B*07:02 (setting [8]), in the assay with HLA-B*58:01 (setting [8]) and with HLA-A*03:01 [3] (setting [8]) was not below 20 µM each time.

As to DSPATLSAY, the equilibrium dissociation constant (Kd) in the assay with HLA-A*01:01 (setting [9]), with HLA-B*40:01 (setting [9]), with HLA-B*27:05 (setting [9]), with HLA-B*46:01, with HLA-B*15:01 (setting [9]) and with HLA-B*48:01 was not below 20 µM each time. For the same sequence, the Kd is not below 20 µM with HLA-A*02:01 (setting [9]); not below 20 µM with HLA-A*11:01 [1] (setting [9]); not below 20 µM with HLA-B*57:01 (setting [9]); 5.53 µM in the assay with HLA-B*15:17 (setting [9]); not below 20 µM in the assay with HLA-A*31:01 [2] (setting [9]); not below 20 µM with HLA-B*58:01 (setting [9]). The Kd in the assay with HLA-A*03:01 [3] (setting [9]) is not below 20 µM.

On to KSISSIFGY, for which the dissociation constant Kd with HLA-A*33:01 is not below 25.2 µM; with HLA-A*11:01 [4] it was 0.00327 µM; with HLA-A*68:01, 6.74 µM; in the assay with HLA-A*31:01 [5] it was 0.0866 µM; with HLA-A*03:01 [6] it was 0.0474 µM; in the assay with HLA-B*57:01 (setting [10]) it was 0.037 µM. Moreover, the Kd is not above 0.001 µM in the assay with HLA-B*15:17 (setting [10]) and 0.0015 µM with HLA-B*58:01 (setting [10]).

As to KSTSPTRTW, the dissociation constant (Kd) worked out at 0.0707 µM with HLA-B*57:01 (setting [10]), 0.0024 µM in the assay with HLA-B*15:17 (setting [10]) and 0.035 µM in the assay with HLA-B*58:01 (setting [10]).

On to KTMMQAHDL, for which the Kd with HLA-B*57:01 (source organism: Bacillus cereus AH1134) worked out at 0.12 µM; with HLA-B*15:17 (setting [11]), 0.226 µM; with HLA-B*58:01 (setting [11]) it was 0.0759 µM.

For LSVSSRCPI, the Kd with HLA-B*57:01 (setting [7]) was determined as 1.17 µM; in the assay with HLA-B*15:17 (setting [7]), 0.0041 µM; in the assay with HLA-B*58:01 (setting [7]), 0.139 µM.

On to MAMLADYFY, for which the Kd was 0.012 µM with HLA-B*15:01 (source organism: Listeria monocytogenes serotype 4b str. H7858), not below 20 µM in the assay with HLA-B*51:01 (setting [12]) and not below 20 µM in the assay with HLA-B*07:02 (setting [12]).

NTDNKFISY: the equilibrium dissociation constant (Kd) in the assay with HLA-B*45:06 (setting [13]) is not below 5 µM; in the assay with HLA-B*15:42 (setting [13]), not below 5 µM; with HLA-B*83:01 (setting [13]) it was not below 5 µM; with HLA-A*01:01 (setting [10]) it was not above 0.001 µM.

Consider QTSSIEGAW, for which the Kd with HLA-B*57:01 (setting [14]) was not below 20 µM; in the assay with HLA-B*15:17 (setting [14]), 5.78 µM; with HLA-B*58:01 (setting [14]), not below 20 µM.

For RPMTYKAAL, the Kd in the assay with HLA-B*45:06 (setting [15]) was not below 5 µM; with HLA-B*15:42 (setting [15]), not below 5 µM; in the assay with HLA-B*83:01 (setting [15]), 0.0987 µM; in the assay with HLA-A*69:01 (setting [15]) it was 11 µM; with HLA-A*11:01 [1] (setting [15]), 17.6 µM; in the assay with HLA-B*07:02 (setting [15]), 0.0396 µM.

As for SERFINYAI, the Kd in the assay with HLA-B*45:06 (setting [7]) is not below 5 µM; with HLA-B*15:42 (setting [7]), not below 5 µM; with HLA-B*83:01 (setting [7]), not below 5 µM; with HLA-B*40:01 (setting [7]), 0.0525 µM; with HLA-B*18:01 it was 0.033 µM.

As to SQDEVLFLV, the dissociation constant (Kd) with HLA-A*69:01 (setting [12]) was 0.0353 µM; in the assay with HLA-A*02:01 (setting [12]), 0.0045 µM; with HLA-A*02:16 it was not above 0.001 µM; in the assay with HLA-A*02:12, 0.004 µM.
